Measurements as given in the supplement of paper PMC10724198.

How the values were obtained:
Saccharomyces cerevisiae [1] = assay: protein stability index of tFT-peptide fusion in deletion strain of DAS1 (PSI (0-1 scale)); higher = more stable (slower turnover)
Protocol: (§1)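 MPS profiling in S. cerevisiae of two library types built from selected 12-aa C-degron peptides (IN1, IN2, LN1, LN3, VN2, R1-R5, W1-W3, Atg1 and Rpa12 C-termini): saturation mutagenesis libraries and C-terminal +1 capping libraries (13 aa). Each peptide is fused to the C-terminus of a sfGFP-mCherry timer, after a GGGS linker. Cells are FACS-sorted into 8 mCherry/sfGFP bins and sequenced. PSI runs from 0 (unstable) to 1 (stable), measured once in wild type and in the das1Δ or doa10Δ background.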

Saccharomyces cerevisiae [2] = assay: protein stability index of tFT-peptide fusion in wild type (PSI (0-1 scale)); higher = more stable (slower turnover); conditions: genetic background: wild type
Protocol: as §1
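For protein stability index of tFT-peptide fusion in deletion strain of DAS1 in this document: PSI is a weighted mean of each variant's read distribution over the sorted stability bins, computed only for variants having over 10 reads in total.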
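For protein stability index of tFT-peptide fusion in wild type in this document: PSI derived as read-weighted mean over the 8 sorting bins, only variants exceeding 10 total reads kept, mCherry placed adjacent to the peptide and sfGFP distal.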

Sequence	protein stability index (Saccharomyces cerevisiae [1])	protein stability index (Saccharomyces cerevisiae [2])
LKILRQKMNMQN	0.641	0.281
CTSCGYKFRLNN	0.701	0.35
FSMRWTFRYIVN	0.475	0.202
FSMRWTFRYWVNS	0.542	0.194
ARWRVGLWRGASS	0.688	0.593
CVVYLSCVACIN	0.0323	0.0137
LVVYQSCVACIN	0.339	0.216
LKILRCKMNHQN	0.625	0.17
VRGAVGGCRLVG	0.692	0.633
VRGAVGGERLVG	0.698	0.65
LKILRQKMNHQNT	0.692	0.671
ARPRVGLWRGAS	0.681	0.65
KDHKKGQKQKIN	0.604	0.0956
RLIQPLPVQFAN	0.62	0.353
RKIQPLPVQFLN	0.616	0.0533
VRMAVGGWRLVG	0.672	0.132
LMVYLSCVACIN	0.0607	0.0204
VRGAPGGWRLVG	0.684	0.165
LKIMRQKMNHQN	0.664	0.23
RLIQPLPSQFLN	0.613	0.106
CTSCGFKFRTNN	0.697	0.486
RLIQALPVQFLN	0.683	0.0525
ARFRVGLWRGAS	0.668	0.56
KNHKKGQKQKIN	0.61	0.121

Sequence	protein stability index (Saccharomyces cerevisiae [1])	protein stability index (Saccharomyces cerevisiae [2])
LVVYLSCVACINY	0.0337	0.0212
ARWRVTLWRGAS	0.692	0.382
VRGAVGGWRLVI	0.685	0.215
LKLLRQKMNHQN	0.682	0.208
KKHKKGQKQKIY	0.594	0.255
PSLAASFWDVVG	0.708	0.694
LVVCLSCVACIN	0.034	0.0139
LVVYLSCVACINT	0.0331	0.0205
VRGDVGGWRLVG	0.679	0.108
DRWRVGLWRGAS	0.657	0.413
ARWRVGLWDGAS	0.688	0.705
KKHKKYQKQKIN	0.587	0.0518
CTSCGYKFRCNN	0.695	0.487
PDKRNHLIRLLN	0.614	0.144
LFILRQKMNHQN	0.692	0.126
LVQYLSCVACIN	0.18	0.0238
VRGAVGGWNLVG	0.679	0.198
RSMRWTFRYWVN	0.659	0.0703
PSLAASFWRVVGS	0.697	0.234
VRGAVGGWRLVM	0.661	0.321
FSMRWTFRYWVNF	0.523	0.076
CTSCGYKFRTNE	0.685	0.726
KKHKKGQRQKIN	0.599	0.0819
FSMRWQFRYWVN	0.53	0.0795

Sequence	protein stability index (Saccharomyces cerevisiae [1])	protein stability index (Saccharomyces cerevisiae [2])
LKILRQVMNHQN	0.663	0.315
LVVGLSCVACIN	0.215	0.159
PSLAASFWCVVG	0.687	0.47
PDKRNHLIKVLN	0.577	0.186
PDKRNHLIKLLNP	0.672	0.663
PDKMNHLIKLLN	0.614	0.111
RLIQPLPVQLLN	0.577	0.0606
FSMYWTFRYWVN	0.399	0.0583
CTSCGYKFRTNNA	0.697	0.698
LKILRQKMNHQNP	0.688	0.678
ARWSVGLWRGAS	0.692	0.448
VRGAVGGWRLLG	0.658	0.164
PSLAASFWRKVG	0.688	0.131
CTSCGYKFCTNN	0.698	0.377
VRGAVGGWRLRG	0.679	0.636
VRGAVGKWRLVG	0.68	0.172
VRGADGGWRLVG	0.685	0.438
FSMRLTFRYWVN	0.401	0.0555
PDNRNHLIKLLN	0.604	0.171
DTSCGYKFRTNN	0.68	0.241
ARWAVGLWRGAS	0.71	0.428
KKHKYGQKQKIN	0.613	0.067
ARWRVGLWRGYS	0.659	0.621
VRGAVGGWRLVGH	0.671	0.668

Sequence	protein stability index (Saccharomyces cerevisiae [1])	protein stability index (Saccharomyces cerevisiae [2])
PDKRNHLIKLLG	0.614	0.238
RLIQPLPVQFLW	0.565	0.621
CTSCGYKYRTNN	0.674	0.295
VRGAVGGWRLQG	0.649	0.153
PSLAASPWRVVG	0.683	0.519
ARWRVGLWRMAS	0.683	0.0865
KKHKKGQKQKEN	0.82	0.57
RLIQPLPQQFLN	0.642	0.0631
VRGAVGGGRLVG	0.682	0.564
ARWRVGNWRGAS	0.678	0.684
CTSCGYKFPTNN	0.728	0.71
ARWRVGLWRGCS	0.683	0.266
FAMRWTFRYWVN	0.476	0.0656
KKHKKGQKSKIN	0.562	0.548
LKILRQKMNHQK	0.682	0.666
LKHLRQKMNHQN	0.712	0.175
LVVYTSCVACIN	0.0606	0.0172
CTSCHYKFRTNN	0.64	0.26
LNILRQKMNHQN	0.622	0.121
LPILRQKMNHQN	0.683	0.125
LVVYLSCVACINI	0.0321	0.0206
TLIQPLPVQFLN	0.576	0.102
LKILCQKMNHQN	0.71	0.246
VRGAVGGWRLVGL	0.675	0.665

Sequence	protein stability index (Saccharomyces cerevisiae [1])	protein stability index (Saccharomyces cerevisiae [2])
PDKRNHLIKLLK	0.611	0.758
VRKAVGGWRLVG	0.665	0.18
VEGAVGGWRLVG	0.685	0.159
LKILAQKMNHQN	0.667	0.229
LVVYLSCVSCIN	0.0441	0.0143
CTSCGYKFRTDN	0.653	0.65
KKHKKGQKQKRN	0.575	0.5
FSMRWTFRYWVNR	0.562	0.559
LVVYLSCAACIN	0.166	0.0321
WLIQPLPVQFLN	0.643	0.0761
VRGAVGGWRLVE	0.663	0.726
PDKRRHLIKLLN	0.605	0.115
KKHKKGQKQAIN	0.6	0.57
CGSCGYKFRTNN	0.687	0.265
FSVRWTFRYWVN	0.419	0.0298
FSMRWTCRYWVN	0.515	0.0505
CTSCGYKFRTNNV	0.69	0.684
KKHKKGQKFKIN	0.572	0.158
PSLAAKFWRVVG	0.681	0.149
KKCKKGQKQKIN	0.593	0.102
PSLAASFWRVVGI	0.696	0.667
